{"source": "the nanobody polyreactivity screen of Harvey et al. (2022)"}
{"assay": "yeast display, Sf9 membrane polyspecificity reagent, FACS + sequencing; frameworks hold sequencing errors", "method_in_brief": "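After 36–48 hours of galactose induction, yeast (Saccharomyces cerevisiae BJ5465) displaying a synthetic nanobody library were stained at 4 °C for 1 hour with 10% biotinylated, detergent-solubilized Sf9 membrane reagent. Streptavidin microbeads enriched the stained cells before FACS sorting into low and high (top ~1%) gates on anti-HA and streptavidin fluorescence. Each clone's polyreactivity label reflects its gate of origin.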"}
{"sequence": "QVQLVESGGGLDQAGGSLRLSCAASGRIFKRYAMGWYRQAPGKERELVAAITRSGTRTYYADSVKGRFTISRDNAKNTVYLQMNSLKPEDTAVYYCAAALGWYSAFGYWGQGTQVTVSS", "polyreactivity (PSR sort gate)": "high polyreactivity"}
{"sequence": "QVQLVESGGGLDQAGGSLRLSCAASGRIFNKYAMGWYRQAPGKERELVAAISSGASTYYADSVKGRFTISRDNAKNTVYLQMNSLKPEDTAVYYCAAGGSKGGNYWGQGTQVTVSS", "polyreactivity (PSR sort gate)": "high polyreactivity"}
{"sequence": "QVQLVESGGGLDQAGGSLRLSCAASGRIFQYYAMGWYRQAPGKERELVAAITSGGRTTYADSVKGRFTISRDNAKNNVYLQMNSLKPEDTAVYYCNAKTWYSYNYWGQGTQVTVSS", "polyreactivity (PSR sort gate)": "high polyreactivity"}
{"sequence": "QVQLVESGGGLDQAGGSLRLSCAASGRIFRPNAMGWYRQAPGKERELVAAITSGGSTNYADSVKGRFTISRDNAKNTVYLQMNSLKPEDNAVYYCAKGYKYGKNIYYYWGQGTQVTVSS", "polyreactivity (PSR sort gate)": "high polyreactivity"}
{"sequence": "QVQLVESGGGLDQAGGSLRLSCAASGRIFRYNAMVWYRQAPGKERELVASISGTSRTKYADSVKGRFTISRDNAKNTVYLQMNSLKPEDTAVYYCAARRYGWGRAQSSASYDHWGQGTQVTVSS", "polyreactivity (PSR sort gate)": "high polyreactivity"}
{"sequence": "QVQLVESGGGLDQAGGSLRLSCAASGRIFTAYAMGWYRQAHGKERELVAAISSGDSTYYADSVKGRFTISRDNAKNTVYLQMNSLKPEDTAVYYCATGVYPDFEYDSWGQGTQVTVSS", "polyreactivity (PSR sort gate)": "low polyreactivity"}
{"sequence": "QVQLVESGGGLDQAGGSLRLSCAASGRIFTVYAMGGYRQAPGKERELVAAISGRGGRTYYADSVKGRFTISRDIAKNTVYLQMNSLKPEDTAVYYCNADTLTLTRPDGDIHTVWMDYWGQGTQVTVSS", "polyreactivity (PSR sort gate)": "low polyreactivity"}
{"sequence": "QVQLVESGGGLDQAGGSLRLSCAASGRNFTRYAMGWYRQAPGKERELVAVITRSGGSTYYADSVKGRFTISRDNAKNTVYLQMNSVKPEDTAVYYCDAKYYGEMYYWGQRTQVTVSS", "polyreactivity (PSR sort gate)": "low polyreactivity"}
{"sequence": "QVQLVESGGGLDQAGGSLRLSCAASGRTFAYYAIGWYRQAPGKERELVATITSYVGRTYYADSVKGRFTISRDNAKKSVYLQMNSLKPDDTAVYYSNARDWGRTRGGGYPWLYRYDYWGQGTQVTVSS", "polyreactivity (PSR sort gate)": "low polyreactivity"}
{"sequence": "QVQLVESGGGLDQAGGSLRLSCAASGRTFFDYAMGWYRQATGKERELVAAINWSGGRTYYADSVKGRFTISRDNAKNTVYLQMISLKPEDTAVYYCAAIYGSLYPTGQTRRDYYSWGQGTKVTVSS", "polyreactivity (PSR sort gate)": "low polyreactivity"}
{"sequence": "QVQLVESGGGLDQAGGSLRLSCAASGRTFGTYVMGWSRQAPGKERELVAAITGSGGSTYYADSVKGRFTISRDIAKNSVYLQMNSLKPEDTAVYYCSAKYRRPRYGFWGQGTQVTVSS", "polyreactivity (PSR sort gate)": "high polyreactivity"}
{"sequence": "QVQLVESGGGLDQAGGSLRLSCAASGSIFAYYVMGWYRQAKGKERELVAAITSVGSTNYADSVKGRFTISRDNAKNTVYLQMNSLKPEESAVFYCAADQYQARYYYWGQGTQVTVSS", "polyreactivity (PSR sort gate)": "low polyreactivity"}
{"sequence": "QVQLVESGGGLDQAGGSLRLSCAASGSIFDSNALGWYRQAPGKERELVASITSSGGSTYYADSVKGRFTISRDKAKNTVYLQMNSLKPEDTAVYYCAADSYKTKHDAYDYCGQGTQVTVSS", "polyreactivity (PSR sort gate)": "high polyreactivity"}
{"sequence": "QVQLVESGGGLDQAGGSLRLSCAASGSIFDSYVMGWYRQAPGKERDLVAAFSRGGSTYYADSVKGRFTISRDNAQNTVYLQINSLKPEDTSVYYCAAGYRVHSPDDCYWGQGTQVTVSS", "polyreactivity (PSR sort gate)": "low polyreactivity"}
{"sequence": "QVQLVESGGGLDQAGGSLRLSCAASGSIFGYYAMGWYRQAPGKERELVAAISWSDGSTYYADSVKGRFTISRDNAKNTVYLQMNSLKPEDTAVYSCAARFTPYITSDDGHYDYWGQGTEVTVSS", "polyreactivity (PSR sort gate)": "low polyreactivity"}
{"sequence": "QVQLVESGGGLDQAGGSLRLSCAASGSIFRGYAMGWYRQAPGKERDLVAAINRSGGRTYYADSVKGRFTISRDNAKNTVYLQMNRLKPEDTAVYYCAADYFFYQPSGYDYWGQGTQVTVSS", "polyreactivity (PSR sort gate)": "high polyreactivity"}
{"sequence": "QVQLVESGGGLDQAGGSLRLSCAASGSIFRNYAMGWYRQAPGKEREFVAAISGGGGSTYYADSVKGRFTISRDNAKNTVYLQMNSLKPEDTAVYYCARVRYYGALKLYAYDHWGQGTQVTVSS", "polyreactivity (PSR sort gate)": "high polyreactivity"}
{"sequence": "QVQLVESGGGLDQAGGSLRLSCAASGSIFRPYTMGWYRQAPGKERELVAAITGTCGSTRYADSVKGRFTISRDNAKNTVYLQMNSLNPEDNAVYYCAVYPPYRGRYDYRKYDSWGQGTQVTVSS", "polyreactivity (PSR sort gate)": "low polyreactivity"}
{"sequence": "QVQLVESGGGLDQAGGSLRLSCAASGSIFRYYAMGWYRQAPGKEREFVASITYRGGRTYYADSVKGRFTISRDNAKNTVYLQMNSLKPEDTAVYYCAARTRAGAWTSKYHDYWGQGTQVTVSS", "polyreactivity (PSR sort gate)": "high polyreactivity"}
{"sequence": "QVQLVESGGGLDQAGGSLRLSCAASGSIFRYYVMGWYRQAPGKERELVAAISWSGGTTYYADSVKGRFTISRDNAKNTVYLQMNSLKPEDTAVYYCAAKGPLGYYHATDYHDYWGQGTQVTVSS", "polyreactivity (PSR sort gate)": "high polyreactivity"}
{"sequence": "QVQLVESGGGLDQAGGSLRLSCAASGSIFSYYAMGWYRPAPGKERELVADNRWSGGSTYYADSVKGRFTISRDKAKNTVYLQMNSLKPEDTAVYYCNTLYLVYLYWTSPTPSDLFDYWGQGTQVTVSS", "polyreactivity (PSR sort gate)": "low polyreactivity"}
{"sequence": "QVQLVESGGGLDQAGGSLRLSCAASGSIFSYYAMGWYRQAPGKERELVAAITIRGGRTYYADSVKGRFTISRDNAKNTVYLQMNSLKPEDTAVYYCAADWLNSDPYNYWGQGTQVTVSS", "polyreactivity (PSR sort gate)": "low polyreactivity"}
{"sequence": "QVQLVESGGGLDQAGGSLRLSCAASGSIFTYYAIGWYRQAPGKERELVADISQRGGSTYYADSVKGRFTISRDNAKNTVYLQMISLKPEDTAVYYCATRARYTWRAFEYWGQGTQVNVSS", "polyreactivity (PSR sort gate)": "low polyreactivity"}
{"sequence": "QVQLVESGGGLDQAGGSLRLSCAASGSIFVIYAMGWYRQAPGKERELVAAIRFSTGSTYYADSVKGRFTISRDNAKNTVYLQMNSLKPEDTAVYYCAARTFKYGSYAYEYWGQGTQVTVSS", "polyreactivity (PSR sort gate)": "high polyreactivity"}
{"sequence": "QVQLVESGGGLDQAGGSLRLSCAASGSIFVTNVMGGYRQAPGKERELVAAISSSGTRTYADSVKGRFTISRDNAKNTVYLQMNSLKTEDTAVYYCAKDYRVWVAATIAHDYWGQGTQVTVSS", "polyreactivity (PSR sort gate)": "low polyreactivity"}
{"sequence": "QVQLVESGGGLDQAGGSLRLSCAASGSIFWAYVMGWYRQAPGKERELVARISSGGRTKYADSVKGRFTISRDNAKNTVYLQMNSLKPEDTAVYYCNADASSSPYTDRQYIGADDSWGHGTQVTVSS", "polyreactivity (PSR sort gate)": "low polyreactivity"}
{"sequence": "QVQLVESGGGLDQAGGSLRLSCAASGSIFYFNAMGWYRQAPGKARELVAAISTSGGSTYADSVKGRFTISRDNAKYTVYLQMNSLKPEDSAVYYFAADYLTSRSRTFDYWGQGTQVTVSS", "polyreactivity (PSR sort gate)": "low polyreactivity"}
{"sequence": "QVQLVESGGGLDQAGGSLRLSCAASGSIFYTNAMGWYRQAPRKERELVAAITSADSTYYADSVKGRFTISRDNANNTVYLQMNSLKPEDTAFYYCANDVYYYYRWYEYWGQGTQVTVSS", "polyreactivity (PSR sort gate)": "high polyreactivity"}
{"sequence": "QVQLVESGGGLDQAGGSLRLSCAASGSIILVNAMGWYRQAPGKERELVAAISWRGGRTRYADSVKGRFTISRDNAKNTVYLQMNSLKPEDTAVYYCAAAGRPVGPRYDYWGQGTQVTVSS", "polyreactivity (PSR sort gate)": "high polyreactivity"}
{"sequence": "QVQLVESGGGLDQAGGSLRLSCAASGSTFGTYAMGWYRQAPGKEWQLVADITGSGGSTYYADSVKGRFTISRDNAKNTVYLQMNSLKPEDTAVYYCAGEYGLGDDTAYGYWGQGTQGTVSS", "polyreactivity (PSR sort gate)": "low polyreactivity"}
{"sequence": "QVQLVESGGGLDQAGGSLRLSCAASGSTFKHNAMGWYRQAPGKERKLVAGISWGGSSTYYADSVKGRFTISRDNAKNTVYLQMNSLKPEDTAVYYCAKGGYRRYGYDYWGQGTQETVSS", "polyreactivity (PSR sort gate)": "low polyreactivity"}
